Results on four molecules are retold here after patent US20060265769A1 (BETH ISRAEL DEACONESS MEDICAL CENTER, published 2006).

First the molecules themselves.
B1: Gab2HA (other, not shown: small tags and cut ends)
chain: MSGGGGDDVVCTGWLRKSPPEKKLRRYAWKKRWFILRSGRMSGDPDVLEYYKNEHSKKPLRIINLNLCEQVDAGLTFNKKELQDSFVFDIKTSERTFYLVAETEADMNKWVQSICQICGFNQAEESTDSLRNLSSASHGPRSSPAEFSSSQHLLRERKSSAPSHSSQPTLFTFEPPVSSHMQPTLSTSAPQEYLYLHQCISRRTENARSASFSQGTRQKSDTAVQKLAQSNGHCINGVGGQVHGFYSLPKPSRHNTEFKDSTYDLPRSLASHGHTKSSLTGSETDNEDVYTFKMPSNTLCRELGDLLVDNMDVPTTPLSAYQIPRTFTLDKNHNAMTVATPGDSAIAPPPRPPKPSQAETSQWGSIQQRPPISENSRSVAATIPRRNTLPAMDNSRLHRASSCETYEYPARGSGESASWSAEPPGKTAVGRSNSASSDDNYVPMNPGSSTLLAMERPGDNSQSVYIPMSPGPHHFDPLGYPSTALPIHRGPSRGSEIQPPPVNRNLKPDRKAKPTPLDLRNNTVIDELPFKSPVTKSWSRINSHTFNSSSSQYCRPISTQSITSTDSGDSEENYVPMQNPVSASPVPSGTNSPAPKKSTGSVDYLALDFQPGSPSPHRKPSTSSVTSDEKVDYVQVDKEKTQALQNTMQEWTDVRQSSEPSKGAKL
modifications: tyrosyl phosphorylated upon IL-3 stimulation

One assay concerns the target T1, SHP-2 (UniProt P35235 2-593).
T1 sequence (looked up): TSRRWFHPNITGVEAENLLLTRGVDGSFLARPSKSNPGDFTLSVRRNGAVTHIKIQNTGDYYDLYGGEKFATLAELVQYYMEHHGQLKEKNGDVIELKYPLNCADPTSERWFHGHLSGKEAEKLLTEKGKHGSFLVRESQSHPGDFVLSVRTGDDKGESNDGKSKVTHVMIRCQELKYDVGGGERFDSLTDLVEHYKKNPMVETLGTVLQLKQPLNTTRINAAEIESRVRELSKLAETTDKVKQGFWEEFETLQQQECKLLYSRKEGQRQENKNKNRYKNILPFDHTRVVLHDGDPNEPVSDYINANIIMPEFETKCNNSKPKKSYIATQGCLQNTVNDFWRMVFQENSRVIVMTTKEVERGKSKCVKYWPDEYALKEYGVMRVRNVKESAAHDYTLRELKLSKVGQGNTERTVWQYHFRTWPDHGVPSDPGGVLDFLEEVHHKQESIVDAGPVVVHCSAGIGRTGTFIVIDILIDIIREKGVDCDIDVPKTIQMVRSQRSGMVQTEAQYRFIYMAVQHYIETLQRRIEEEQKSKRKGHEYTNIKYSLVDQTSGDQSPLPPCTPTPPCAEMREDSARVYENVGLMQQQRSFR
Nature of the assay: cell-based or functional assay.

The next assay concerns the target T2, Gab2 (mouse, UniProt Q9Z1S8 1-665, tyrosyl phosphorylated upon stimulation (Y604 and Y633 said to be highly phosphorylated)).
T2 construct: Scaffolding protein; Endogenous protein in lysates of BaF3, BAC1.2F5 and P210BCR-ABL BaF3 cells; also called p97; p97/Gab2
Nature of the assay: co-immunoprecipitation and immunoblotting, BaF3 cells. (Immunoblotting shows a protein as a band on a membrane.)

The assay “Gab2HA” concerns the target B1. The description is as above.

For the molecule B1, the “basal c-fos luciferase activity in BaF3 cells” value in the assay with SHP-2 was ~2 fold.

B2: Crk (other, UniProt Q64010 2-304, looked up)
chain: AGNFDSEERSSWYWGRLSRQEAVALLQGQRHGVFLVRDSSTSPGDYVLSVSENSRVSHYIINSSGPRPPVPPSPAQPPPGVSPSRLRIGDQEFDSLPALLEFYKIHYLDTTTLIEPVARSRQGSGVILRQEEAEYVRALFDFNGNDEEDLPFKKGDILRIRDKPEEQWWNAEDSEGKRGMIPVPYVEKYRPASASVSALIGGNQEGSHPQPLGGPEPGPYAQPSVNTPLPNLQNGPIYARVIQKRVPNAYDKTALALEVGELVKVTKINVSGQWEGECNGKRGHFPFTHVRLLDQQNPDEDFS
Take B2: the binding result in the assay with Gab2 and in the assay with Gab2HA was “no binding” throughout.

B3: Crk-L (other, UniProt P47941 1-303, looked up)
chain: MSSARFDSSDRSAWYMGPVTRQEAQTRLQGQRHGMFLVRDSSTCPGDYVLSVSENSRVSHYIINSLPNRRFKIGDQEFDHLPALLEFYKIHYLDTTTLIEPAPRYPSPPVGSVSAPNLPTAEENLEYVRTLYDFPGNDAEDLPFKKGELLVIIEKPEEQWWSARNKDGRVGMIPVPYVEKLVRSSPHGKHGNRNSNSYGIPEPAHAYAQPQTTTPLPTVASTPGAAINPLPSTQNGPVFAKAIQKRVPCAYDKTALALEVGDIVKVTRMNINGQWEGEVNGRKGLFPFTHVKIFDPQNPDDNE
In the case of B3, the binding result in the assay with Gab2 and in the assay with Gab2HA was “no binding” throughout.

B4: Crk-II (other, UniProt Q64010-1 2-304, looked up)
chain: AGNFDSEERSSWYWGRLSRQEAVALLQGQRHGVFLVRDSSTSPGDYVLSVSENSRVSHYIINSSGPRPPVPPSPAQPPPGVSPSRLRIGDQEFDSLPALLEFYKIHYLDTTTLIEPVARSRQGSGVILRQEEAEYVRALFDFNGNDEEDLPFKKGDILRIRDKPEEQWWNAEDSEGKRGMIPVPYVEKYRPASASVSALIGGNQEGSHPQPLGGPEPGPYAQPSVNTPLPNLQNGPIYARVIQKRVPNAYDKTALALEVGELVKVTKINVSGQWEGECNGKRGHFPFTHVRLLDQQNPDEDFS
Take B4: the binding result in the assay with Gab2 and with Gab2HA was “no binding” in each case.
